Source: patent US9493781B2, “Synthetic brassica-derived chloroplast transit peptides” (DOW AGROSCIENCES LLC, priority 2012, dated 2016)

How the values were obtained:
[1] = test system: Arabidopsis; assay: dgt-28, dgt-32, dgt-33, dgt-3, dgt-7 transformed Arabidopsis (T1, T2, T3) response to postemergence glyphosate, % visual injury; format: in vivo, Arabidopsis thaliana; conditions: for % Injury Ave / % Injury Range (%) / No. plants with 20-40% injury / No. plants with <20% injury / No. plants with >40% injury: 14 days after application
From the text: Transgenic T1 Arabidopsis plants containing the dgt-28 transgene were sprayed with differing rates of glyphosate. Elevated rates were applied in this study to determine the relative levels of resistance (105, 420, 1,680 or 3,360 g ae/ha). A typical 1× usage rate of glyphosate that will control non-transformed Arabidopsis is 420 g ae/ha. […] The T1 Arabidopsis plants that were used in this study were variable copy number for the dgt-28 transgene. The low copy dgt-28 T1 Arabidopsis plants were self-pollinated and used to produce T2 plants.
Results of Glyphosate Selection of Transformed dgt-28 Arabidopsis Plants. The Arabidopsis T1 transformants were first selected from the background of untransformed seed using a glufosinate selection scheme. Three flats or 30,000 seed were analyzed for each T1 construct. The T1 plants selected above were molecularly characterized and representative plants with variable copy number were subsequently transplanted to individual pots and sprayed with various rates of commercial glyphosate as previously described. The response of these plants is presented in terms of % visual injury 2 weeks after treatment (WAT). […] An arithmetic mean and standard deviation is presented for each construct used for Arabidopsis transformation. The range in individual response is also indicated in the last column for each rate and transformation. Wild-type, non-transformed Arabidopsis (c.v. Columbia) served as a glyphosate sensitive control.
T2Arabidopsis Data. The second generation plants (T2) of selected T1 Arabidopsis events which contained low copy numbers of the dgt-28 transgene were further characterized for glyphosate tolerance. Glyphosate was applied as described previously. The response of the plants is presented in terms of % visual injury 2 weeks after treatment (WAT). […] An arithmetic mean and standard deviation are presented for each construct used for Arabidopsis transformation. The range in individual response is also indicated in the last column for each rate and transformation. Wild-type, non-transformed Arabidopsis (cv. Columbia) served as a glyphosate sensitive control. In the T2 generation hemizygous and homozygous plants were available for testing for each event and therefore were included for each rate of glyphosate tested. Hemizygous plants contain two different alleles at a locus as compared to homozygous plants which contain the same two alleles at a locus. Variability of response to glyphosate is expected in the T2 generation as a result of the difference in gene dosage for hemizygous as compared to homozygous plants. The variability in response to glyphosate is reflected in the standard deviation and range of response.
T3 Arabidopsis Data. The third generation plants (T3) of selected T2 Arabidopsis events which contained low copy numbers of the dgt-28 transgene were further characterized for glyphosate tolerance. […] Glyphosate was applied as described previously. The response of the plants is presented in terms of % visual injury 2 weeks after treatment (WAT). […] An arithmetic mean and standard deviation are presented for each construct used for Arabidopsis transformation. The range in individual response is also indicated in the last column for each rate and transformation. Wild-type, non-transformed Arabidopsis (cv. Columbia) served as a glyphosate-sensitive control.

[2] = test system: Arabidopsis; assay: Heritability progeny test of T1 families (T2 plants) with glufosinate, Arabidopsis; format: in vivo, Arabidopsis thaliana; conditions: progeny test of 100 T2 plants, glufosinate 200 g ae/ha
From the text: Heritability. Confirmed transgenic T1 Arabidopsis events were self-pollinated to produce T2 seed. These seed were progeny tested by applying Ignite™ herbicide containing glufosinate (200 g ae/ha) to 100 random T2 siblings. […] The T1 families (T2 plants) segregated in the anticipated 3 Resistant: 1 Sensitive model for a dominantly inherited single locus with Mendelian inheritance as determined by Chi square analysis (P>0.05). […] Seed were collected from 5 to 15 T2 individuals (T3 seed). Twenty-five T3 siblings from each of 3-4 randomly-selected T2 families were progeny tested as previously described.

[3] = Table 8, T1 Arabidopsis, 105 g ae/ha glyphosate
[4] = Table 8, T1 Arabidopsis, 420 g ae/ha glyphosate
[5] = Table 8, T1 Arabidopsis, 1680 g ae/ha glyphosate
[6] = Table 8, T1 Arabidopsis, 3360 g ae/ha glyphosate
[7] = Table 10, T1 Arabidopsis, 1,680 g ae/ha glyphosate
[8] = Table 12, T2 Arabidopsis, 1 copy, 420 g ae/ha glyphosate
[9] = Table 12, T2 Arabidopsis, 1 copy, 840 g ae/ha glyphosate
[10] = Table 12, T2 Arabidopsis, 1 copy, 1680 g ae/ha glyphosate
[11] = Table 12, T2 Arabidopsis, 1 copy, 3360 g ae/ha glyphosate

B1: pDAB105530: TraP5 v2 - dgt-28 v5: binary construct TraP5 v2: dgt-28 v5 (SEQ ID NO:33) (nucleic acid)
DNA: ATGCAACTCCTGAATCAGAGGCAAGCCCTGCGTCTTGGTCGTTCATCTGCTTCAAAGAACCAGCAAGTTGCTCCACTGGCCTCTAGGCCTGCTTCTTCCTTGAGCGTCAGCGCATCCAGCGTCGCACCTGCACCTGCTTGCTCAGCTCCTGCTGGAGCTGGAAGGCGTGCTGTTGTCGTGAGAGCAGCAAGAGGGATGCCAGCCTTGTCTTTACCTGGATCAAAGAGTATCACAGCTAGGGCACTCTTTCTTGCTGCTGCTGCTGATGGGGTTACTACTTTGGTGAGGCCATTGAGAAGTGACGACACAGAAGGATTCGCTGAGGGGTTAGTTCGTTTAGGCTATCGTGTAGGGAGGACACCCGATACTTGGCAAGTCGATGGCAGACCACAAGGACCAGCAGTGGCTGAGGCTGACGTCTACTGTAGAGACGGAGCAACCACCGCTAGATTCTTGCCAACCTTAGCAGCTGCTGGTCACGGAACATACAGATTTGATGCTTCACCACAGATGAGGAGACGTCCTCTTTTGCCCTTAAGCAGAGCCTTGAGGGATTTGGGTGTCGATCTTAGACACGAAGAAGCTGAAGGTCATCACCCTCTGACTGTCCGTGCTGCTGGGGTTGAAGGAGGAGAGGTTACTTTGGATGCTGGTCAGTCAAGTCAGTATCTCACTGCCTTGTTGCTCCTTGGTCCCCTTACAAGACAAGGACTGAGGATAAGGGTTACTGATTTGGTGTCAGCACCATACGTGGAGATTACGCTTGCAATGATGAGGGCTTTCGGAGTTGAAGTGGCAAGGGAGGGAGATGTGTTCGTTGTTCCACCTGGTGGATATCGTGCAACTACGTATGCTATAGAACCCGACGCAAGTACTGCTTCTTACTTCTTCGCAGCTGCTGCTTTGACTCCTGGAGCTGAAGTGACTGTACCTGGGTTAGGCACGGGAGCACTTCAAGGAGATTTGGGATTTGTAGATGTCTTAAGGAGAATGGGAGCCGAGGTGTCCGTAGGAGCTGATGCAACCACTGTTAGAGGAACTGGTGAATTGCGTGGCCTTACAGCCAACATGAGAGACATAAGTGATACGATGCCGACCCTCGCTGCAATAGCACCCTTTGCTAGTGCTCCAGTTAGAATCGAGGATGTTGCCAACACTCGTGTCAAAGAATGTGACAGACTTGAGGCTTGTGCAGAGAACCTTAGGAGGTTGGGAGTAAGGGTTGCAACGGGTCCGGACTGGATTGAGATACACCCTGGTCCAGCTACTGGTGCTCAAGTCACAAGCTATGGTGATCACAGAATTGTGATGTCATTTGCAGTGACTGGACTTCGTGTGCCTGGGATCAGCTTCGACGACCCTGGCTGTGTTCGTAAGACTTTTCCTGGGTTTCACGAGGCTTTCGCAGAATTGAGGCGTGGCATTGGGAGCTGA
modifications: In-frame fusion of dgt-28 v5 and TraP5 v2
In the case of B1, the “Glyphosate tolerance” value ([1]; T2 Arabidopsis, versus dgt-28 constructs with other TraP transit peptides) is reported as “did not provide robust tolerance to glyphosate”, the “% Injury Ave” value [1, 3] is reported as 39.3% and the “% Injury Range (%)” value [1, 3] is reported as 8-100%. The “No. plants with 20-40% injury” value [1, 3] was 2, the “No. plants with <20% injury” value [1, 3] was 2 and the “No. plants with >40% injury” value [1, 3] was 2. The “% Injury Ave” value [1, 4] was 33.0%, the “% Injury Range (%)” value [1, 4] was 8-85% and the “No. plants with 20-40% injury” value [1, 4] was 4. For the same molecule, the “No. plants with <20% injury” value [1, 4] was 1, the “No. plants with >40% injury” value [1, 4] was 1 and the “% Injury Ave” value [1, 5] was 47.5%. The “% Injury Range (%)” value [1, 5] was 25-85%, the “No. plants with 20-40% injury” value [1, 5] was 4 and the “No. plants with <20% injury” value [1, 5] was 0. For the same molecule, the “No. plants with >40% injury” value [1, 5] was 2, the “% Injury Ave” value [1, 6] was 76.7% and the “% Injury Range (%)” value [1, 6] was 50-85%. The “No. plants with 20-40% injury” value [1, 6] was 0, the “No. plants with <20% injury” value [1, 6] was 0 and the “No. plants with >40% injury” value [1, 6] was 6. For the same molecule, the “% Injury Ave” value [1, 7] was 47.5%, the “% Injury Range (%)” value [1, 7] was 25-85% and the “No. plants with 20-40% injury” value [1, 7] was 4. For the same molecule, the “No. plants with <20% injury” value [1, 7] was 0, the “No. plants with >40% injury” value [1, 7] was 2 and the “% Injury Ave” value [1, 8] was 75.0%. The “% Injury Range (%)” value [1, 8] was 50-90%, the “No. plants with 20-40% injury” value [1, 8] was 0 and the “No. plants with <20% injury” value [1, 8] was 0. For the same molecule, the “No. plants with >40% injury” value [1, 8] was 4, the “% Injury Ave” value [1, 9] was 80.0% and the “% Injury Range (%)” value [1, 9] was 50-90%. The “No. plants with 20-40% injury” value [1, 9] was 0, the “No. plants with <20% injury” value [1, 9] was 0 and the “No. plants with >40% injury” value [1, 9] was 4. The “% Injury Ave” value [1, 10] was 75.0%, the “% Injury Range (%)” value [1, 10] was 60-85% and the “No. plants with 20-40% injury” value [1, 10] was 0. For the same molecule, the “No. plants with <20% injury” value [1, 10] was 0, the “No. plants with >40% injury” value [1, 10] was 4 and the “% Injury Ave” value [1, 11] was 76.3%. For the same molecule, the “% Injury Range (%)” value [1, 11] was 70-80%, the “No. plants with 20-40% injury” value [1, 11] was 0 and the “No. plants with <20% injury” value [1, 11] was 0. The “No. plants with >40% injury” value [1, 11] was 4 and the “T1 Families Tested Segregating at 1 Locus (%)” value [2] was 100%.
